Data taken from the Human Domainome abundance scans (Beltran et al. 2025).
± gives the uncertainty stated by the source.

B1: WW domain-containing transcription regulator protein 1, residues 116 to 162; numbered along this chain, Q9GZV5 (parent)
chain: QSYDVTDELPLPPGWEMTFTATGQRYFLNHIEKITTWQDPRKAMNQP

Variants of: B1
Experiment: abundance fitness (aPCA) (normalised: wild type 0, dead -1); higher = more abundant; growth selection in yeast, the domain comes from the species named
Settings: Homo sapiens

In order of falling abundance fitness:
1. M44D  0.076 ± 0.064
2. M44F  0.068 ± 0.058
3. Q46D  0.058 ± 0.043
4. P47L  0.053 ± 0.48
5. Q46F  0.04 ± 0.025
6. N45Y  0.039 ± 0.051
7. Q46E  0.037 ± 0.032
8. Q46P  0.026 ± 0.037
9. M44Y  0.014 ± 0.042
10. M44G  0.004 ± 0.029
11. M44L  -0.012 ± 0.03
12. M44Q  -0.014 ± 0.036
13. Q46V  -0.018 ± 0.028
14. N45A  -0.018 ± 0.025
15. M44C  -0.02 ± 0.055
16. Q46C  -0.021 ± 0.027
17. Q46L  -0.022 ± 0.033
18. N45M  -0.023 ± 0.045
19. M44T  -0.028 ± 0.031
20. N45G  -0.04 ± 0.031
21. N45W  -0.043 ± 0.041
22. Q46I  -0.044 ± 0.063
23. N45T  -0.044 ± 0.025
24. M44V  -0.045 ± 0.033
25. Q46W  -0.046 ± 0.041
26. N45K  -0.052 ± 0.033
27. Q46S  -0.053 ± 0.041
28. N45V  -0.056 ± 0.024
29. Q46G  -0.058 ± 0.033
30. Q46T  -0.058 ± 0.045
31. P47A  -0.06 ± 0.38
32. Q46N  -0.067 ± 0.046
33. M44P  -0.068 ± 0.027
34. N45I  -0.084 ± 0.056
35. M44H  -0.085 ± 0.061
36. M44S  -0.089 ± 0.038
37. N45C  -0.089 ± 0.037
38. N45H  -0.09 ± 0.036
39. N45D  -0.092 ± 0.055
40. N45S  -0.093 ± 0.041
41. Q46M  -0.098 ± 0.039
42. N45R  -0.109 ± 0.028
43. N45L  -0.118 ± 0.034
44. P47S  -0.125 ± 0.06
45. N45E  -0.125 ± 0.047
46. N45P  -0.135 ± 0.048
47. Q46A  -0.138 ± 0.039
48. P47T  -0.148 ± 0.043
49. Q46R  -0.156 ± 0.035
50. Q46K  -0.164 ± 0.058
51. M44N  -0.215 ± 0.09
52. Q46Y  -0.221 ± 0.061
53. N45Q  -0.223 ± 0.064
54. M44I  -0.244 ± 0.059
55. Q46H  -0.394 ± 0.063
56. R41T  -0.4 ± 0.042
57. R41Q  -0.447 ± 0.074
58. D39R  -0.452 ± 0.031
59. R41A  -0.5 ± 0.036
60. R41N  -0.505 ± 0.064
61. R41V  -0.518 ± 0.03
62. P47H  -0.577 ± 0.32
63. R41I  -0.603 ± 0.094
64. R41G  -0.628 ± 0.034
65. P47G  -0.677 ± 0.21
66. R41K  -0.688 ± 0.042
67. R41C  -0.689 ± 0.086
68. R41W  -0.689 ± 0.069
69. R41M  -0.703 ± 0.099
70. D39Y  -0.709 ± 0.068
71. R41H  -0.719 ± 0.053
72. D39S  -0.719 ± 0.035
73. D39V  -0.721 ± 0.065
74. R41E  -0.73 ± 0.05
75. R41L  -0.747 ± 0.062
76. P40E  -0.757 ± 0.086
77. D39T  -0.761 ± 0.047
78. P40A  -0.767 ± 0.077
79. P40Q  -0.774 ± 0.053
80. R41P  -0.785 ± 0.068
81. P40N  -0.796 ± 0.086
82. R41D  -0.806 ± 0.061
83. P40K  -0.834 ± 0.13
84. P47N  -0.84 ± 0.32
85. P40T  -0.857 ± 0.04
86. R41F  -0.902 ± 0.25
87. D39Q  -0.911 ± 0.16
88. P40D  -0.914 ± 0.14
89. P40C  -0.92 ± 0.17
90. P40I  -0.97 ± 0.17
91. P40S  -0.983 ± 0.064
92. P40L  -0.987 ± 0.06
93. P40H  -0.988 ± 0.17
94. P40R  -0.999 ± 0.063
95. P40W  -1 ± 0.069
96. P40Y  -1.07 ± 0.14
97. P40F  -1.09 ± 0.4
98. R41Y  -1.11 ± 0.43
